Reference: the supplement of paper PMC10126150
± gives the standard deviation of the averaged measurements.

Tested on: ATP
Assay: switch fluorescence ratio, 500 uM ATP over buffer (Cy3 cluster intensity, sum of 5 cycles each) (fold (ratio)); higher = stronger signal-on switching upon ATP binding; sequences stand for … in TCGTCGGCAGCGTCAGATGTGTATAAGAGACAGTTTTTTTTTTTTTTTTTTTTTTTTT…TC
Settings: aptamer strand: ATP DNA aptamer (quencher-CACCTGGGGGAGTATTGCGGAGGAAGG + anchor), 100 nM annealed; ATP concentration: 500 uM
Method in brief: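 Cy3-labelled switching-strand clusters on a modified Illumina MiSeq flow-cell were annealed to 100 nM quencher-labelled ATP aptamer and imaged first in selection buffer, then after 15 min with 500 uM ATP at 22 °C. NaOH stripping and re-annealing separated each of five buffer/ATP cycles, and clusters outside 100-1000 RFU were excluded. The fluorescence ratio sums target-cycle Cy3 intensity over buffer-cycle Cy3 intensity per cluster and averages it per switch-domain sequence.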
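Also: ATP exposure 15 min at 22 °C before imaging.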

Sequence | switch fluorescence ratio
CATCTATTTT | 1 ± 0.035
TGGTGACTAG | 0.967 ± 0.024
ACGAAGATTT | 1.03 ± 0.066
ATGTTTTAGG | 1.01 ± 0.047
TTGGGTGGCA | 1.03 ± 0.039
GCTGTGTAGG | 0.994 ± 0.013
CAGGTCGACT | 0.972 ± 0.03
CAATATATCT | 1.01 ± 0.019
AGGTGTCTTG | 1.14 ± 0.074
GGTATGGGTG | 1.023 ± 0.0055
GGTGAGAAAT | 1.01 ± 0.04
CTTATAACAG | 1.01 ± 0.018
TAATGGTTGC | 0.996 ± 0.014
GCTCTTAGCG | 1.03 ± 0.054
TCGTTAGAAG | 0.9966 ± 0.0052
AATTGCGGTA | 0.982 ± 0.05
GTGTGGGGAC | 0.988 ± 0.044
GCGGGAAGCT | 1.05 ± 0.044
GGTAGAGATT | 1.02 ± 0.037
TGGAAATTGG | 1.01 ± 0.02
TGGGATAGAG | 1 ± 0.021
ATATGGGGTG | 1.05 ± 0.046
TATAGCTTGG | 1 ± 0.029
TTACTATGAA | 1.039 ± 0.0071
TATATTTTTT | 1.02 ± 0.068

Sequence | switch fluorescence ratio
GAGATGGGGA | 0.991 ± 0.022
TTAAAGGTTA | 0.989 ± 0.013
TCTGGAAGGT | 1.04 ± 0.053
GTGAGTTGCT | 1.002 ± 0.005
ATGGTTAGGT | 1.02 ± 0.029
AAGGCGGTCA | 1.01 ± 0.04
GTTAGTGGGC | 0.971 ± 0.037
GCCCGTATGG | 1 ± 0.019
GAATGTCCGT | 0.992 ± 0.015
GGGGGAGTCC | 0.985 ± 0.014
TATATTGCTA | 1.01 ± 0.026
GTTTTAGTCC | 1.01 ± 0.025
TTGATTGATT | 0.9916 ± 0.0055
TTTCTGGGTG | 1.13 ± 0.038
TTATGTCCGG | 1.02 ± 0.025
GGCGCGCATT | 1.02 ± 0.018
TTTCGAATAA | 0.986 ± 0.0099
ATTAGAAGGG | 0.985 ± 0.061
GATATTATGA | 1.01 ± 0.01
TATATTAGCT | 1.01 ± 0.026
AAAATGGGTT | 1 ± 0.059
TAGTGGGGGT | 1.01 ± 0.022
ACCGAGCATG | 1.36 ± 0.1
TTCTCGGCCC | 1.11 ± 0.019
CCAGGCTGAG | 1.05 ± 0.022

Sequence | switch fluorescence ratio
TTGTTTTGTA | 0.992 ± 0.024
ATTGCAGCGG | 1 ± 0.02
GGTTGGATGG | 0.9995 ± 0.0007
TTTTGGCCTA | 1.01 ± 0.029
TATTTCTTTT | 1.05 ± 0.11
AGGGTGGAGC | 1.07 ± 0.092
GGGCAATAAC | 3.95 ± 0.13
GGGGGGTGGC | 1.05 ± 0.15
GGGGTTAAAT | 1 ± 0.047
AGGAAATTTG | 0.994 ± 0.031
TGAAATTACT | 1.05 ± 0.033
CATGAGGGGG | 1.01 ± 0.059
AAGGGGCCCT | 1.0195 ± 0.00095
CGCTGTCACG | 1.0556 ± 0.00068
ATTGTCAGTT | 1.013 ± 0.0029
GGGTAGAATG | 1.02 ± 0.03
GGGAGTGTAA | 1 ± 0.033
TGGTTAGTGT | 1.01 ± 0.057
TCCATATGGT | 0.975 ± 0.023
ATTGGCGTGG | 1.01 ± 0.019
TCCGATTACG | 1.22 ± 0.037
CCATATTTTT | 0.985 ± 0.015
GAGGGAGTGG | 1.01 ± 0.037
GTTGGTTACA | 1.008 ± 0.0065
GGTGTGGCGT | 1 ± 0.018

Sequence | switch fluorescence ratio
AGAAGAGGTA | 0.949 ± 0.024
ATCAATTTCT | 0.974 ± 0.014
TGACCAGGCA | 1.05 ± 0.056
AAGTTCTGGA | 0.976 ± 0.07
GTAGTATTAG | 1.032 ± 0.0043
CCGAATACCA | 1.61 ± 0.13
GAACGCCGGC | 0.939 ± 0.034
GAGTTGTGCC | 1.1 ± 0.032
TGAGCGGCAA | 1.2 ± 0.22
TCTTTGGGGA | 1.04 ± 0.04
GCGGGGGTTT | 1.15 ± 0.28
TTTACGAAAT | 1.08 ± 0.12
TATACTGCGC | 1.065 ± 0.0087
ACCGGTTACC | 1.09 ± 0.029
GCTAGGCTGG | 0.97301 ± 0.0002
TTGGGAAGGG | 1 ± 0.032
GGTTTGAAAT | 1.04 ± 0.051
GGGCTTGGGC | 0.976 ± 0.035
GGCAGCTGGT | 1.01 ± 0.03
GATTTTGTAG | 1.01 ± 0.028
GGGGACCTGG | 0.9999 ± 0.0046
GGACGGTATG | 1.02 ± 0.031
CAGGTACATT | 1.02 ± 0.049
ACGTAGTGCG | 1 ± 0.023
TTAATTTTGT | 1 ± 0.012
